Here are results for one protein from patent US20120148565.

Data set [1] deals with Flag tagged ubiquitin.
Data set [2] has as its target GST fused WWP-1 (C. elegans HECT E3 ubiquitin ligase WWP-1, full length, wild type, N-terminal GST from pGEX-KG).

Sequence of GST fused WWP-1 (C. elegans HECT E3 ubiquitin ligase WWP-1, full length, wild type, N-terminal GST from pGEX-KG) (chain, as listed by the source): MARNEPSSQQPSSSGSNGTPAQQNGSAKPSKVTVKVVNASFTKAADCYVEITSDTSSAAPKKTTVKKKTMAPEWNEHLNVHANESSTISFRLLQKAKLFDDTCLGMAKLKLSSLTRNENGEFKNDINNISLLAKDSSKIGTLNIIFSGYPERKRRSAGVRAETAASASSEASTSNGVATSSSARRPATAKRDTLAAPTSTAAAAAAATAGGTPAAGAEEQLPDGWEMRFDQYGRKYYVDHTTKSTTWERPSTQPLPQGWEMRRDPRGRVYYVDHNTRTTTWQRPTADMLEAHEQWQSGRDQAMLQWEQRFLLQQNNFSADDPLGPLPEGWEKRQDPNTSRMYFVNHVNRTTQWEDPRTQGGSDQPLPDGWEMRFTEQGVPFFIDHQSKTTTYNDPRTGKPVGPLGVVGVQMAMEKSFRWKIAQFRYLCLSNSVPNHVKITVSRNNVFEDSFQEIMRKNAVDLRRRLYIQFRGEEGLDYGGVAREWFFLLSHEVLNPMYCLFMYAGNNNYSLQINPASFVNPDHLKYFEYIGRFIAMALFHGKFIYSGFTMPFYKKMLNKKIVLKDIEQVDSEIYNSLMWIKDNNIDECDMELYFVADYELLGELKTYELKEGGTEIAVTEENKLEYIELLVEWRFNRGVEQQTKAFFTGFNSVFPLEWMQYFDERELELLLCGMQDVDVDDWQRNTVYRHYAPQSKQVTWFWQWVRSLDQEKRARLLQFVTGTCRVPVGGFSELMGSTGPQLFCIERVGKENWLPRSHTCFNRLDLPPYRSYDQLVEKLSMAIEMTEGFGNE

B1: recombinant UBC-18 (C. elegans E2 ubiquitin conjugating enzyme, GST tag removed by thrombin cleavage) (protein)
chain: MSATRRLQKELGDLKNCGVKAYENVECEETNLLKWTVLLIPDKEPYNKGAFKVGITFPVDYPFKPPKVAFETKIYHPNVDEEGKFCLPIVTAENWKPATKTEQVMMALLSLINEPEPSHPIRADVAEEFQKDHKKFMKTAEEHTRKHAEKRPE
With B1, in data set [1], the “in vitro ubiquitin conjugation reaction, SDS/PAGE with or without beta-mercaptoethanol” value is “UBC-18 is indeed a functional E2 and is capable of forming a thiol ester bond with ubiquitin”. Besides, in data set [2], the “in vitro ubiquitination assay of WWP-1 with embryo extract from ubc-18(ku354) mutant worms, recombinant UBC-18 added back” value is listed as “ligase activity was restored with the addition of recombinant UBC-18”; the “in vitro ubiquitination assay using purified components (anti-Flag immunoblot)” value was “WWP-1 exhibited ubiquitin ligase activity in an E1 and UBC-18 dependent manner”.
